We go through one protein from patent publication US20180291353A1, “MONOFUNCTIONAL ALDEHYDE AND ALCOHOL DEHYDROGENASES FOR PRODUCTION OF FUELS AND COMMODITY CHEMICALS” (The Regents of the University of California, priority 2015, published 2018).

Substrate in data set [1]: CC(=O)SCCNC(=O)CCNC(=O)[C@H](O)C(C)(C)COP(=O)(O)OP(=O)(O)OC[C@H]1O[C@@H](n2cnc3c(N)ncnc32)[C@H](O)[C@@H]1OP(=O)(O)O
The experiment in a line: purified protein, by the assay type. Particulars: other: 100 μM NADH, 100 mM Tris, 1 mM DTT, pH 7.5, 30° C., mean±s.e. (n=3).

Substrate in data set [2]: CCCC(=O)SCCNC(=O)CCNC(=O)[C@H](O)C(C)(C)COP(=O)(O)OP(=O)(O)OC[C@H]1O[C@@H](n2cnc3c(N)ncnc32)[C@H](O)[C@@H]1OP(=O)(O)O
The experiment in a line: purified protein, by the assay type. Particulars: other: 100 μM NADH, 100 mM Tris, 1 mM DTT, pH 7.5, 30° C., mean±s.e. (n=3).

B1: AdhE2-ALDH (aldehyde dehydrogenase domain of bifunctional AdhE2, wild type, GI 499193180, SEQ ID NO: 41) (Clostridium acetobutylicum) (protein)
chain: MKVTNQKELKQKLNELREAQKKFATYTQEQVDKIFKQCAIAAAKERINLAKLAVEETGIGLVEDKIIKNHFAAEYIYNKYKNEKTCGIIDHDDSLGITKVAEPIGIVAAIVPTTNPTSTAIFKSLISLKTRNAIFFSPHPRAKKSTIAAAKLILDAAVKAGAPKNIIGWIDEPSIELSQDLMSEADIILATGGPSMVKAAYSSGKPAIGVGAGNTPAIIDESADIDMAVSSIILSKTYDNGVICASEQSILVMNSIYEKVKEEFVKRGSYILNQNEIAKIKETMFKNGAINADIVGKSAYIIAKMAGIEVPQTTKILIGEVQSVEKSELFSHEKLSPVLAMYKVKDFDEALKKAQRLIELGGSGHTSSLYIDSQNNKDKVKEFGLAMKTSRTFINMPSSQGASGDLYNFAIAPSFTLGCGTWGGNSVSQNVEPKHLLNIKSVAERRENMLWFKVPQKIYFKYGCLRFALKELKDMNKKRAFIVTDKDLFKLGYVNKITKVLDEIDIKYSIFTDIKSDPTIDSVKKGAKEMLNFEPDTIISIGGGSPMDAAKVMHLLYEYPEAEIENLAINFMDIRKRICNFPKLGTKAISVAIPTTAGTGSEATPFAVITNDETGMKYPLTSYELTPNMAIIDTELMLNMPRKLTAATGIDALVHAIEAYVSVMATDYTDELALRAIKMIFKYLPRAYKNGTNDIEAREKMAHASNIAGMAFANAFLGVCHSMAHKLGAMHHVPHGIACAVLIEEVIKYNATDCPTKQTAFPQYKSPNAKRKYAEIAEYLNLKGTSDTEKVTALIEAISKLKIDLSIPQNISAAGINKKDFYNTLDKMSELAFDDQCTTANPRYPLISELKDIYIKSF
The Km is the substrate concentration at which the rate is half of its maximum. In general, kcat refers to the maximal rate divided by the concentration of active sites. For orientation: kcat/Km means the turnover number divided by the Michaelis constant. For the protein B1, in data set [1], the Km amounted to 100 ± 10 µM, the kcat amounted to 1.3 s⁻¹ and the specificity constant (kcat/Km) came to 13000 M⁻¹ s⁻¹. For the same protein, the Km in data set [2] turned out to be 10 ± 1 µM.
